Source: paper PMC3413145
Read-outs that look alike come from different tables or passages of the source.

Tests used:
Assay in all cases: EMSA
[1] = biological target: E. coli RNAP core enzyme;sigmaA (Escherichia coli;Mycobacterium …, UniProt P0A7Z4;P0A8V2;P0A8T7;P0A800;P9WGI1 1-329;1-1342;1-1407;1-91;1-528, |)
[2] = biological target: RNAP core enzyme (alpha2 beta beta' omega);sigmaA (Mycobacterium tuberculosis (H37Rv for …, UniProt P9WGZ1;P9WGY9;P9WGY7;P9WGY5;P9WGI1 1-347;1-1178;1-1316;1-110;1-528, |))
[3] = biological target: T1, RNAP core enzyme (alpha2 beta beta' omega);sigmaA;RbpA (Mycobacterium tuberculosis (H37Rv for …, UniProt P9WGZ1;P9WGY9;P9WGY7;P9WGY5;P9WGI1;P9WHJ5 1-347;1-1178;1-1316;1-110;1-528;1-111, ||))
[4] = biological target: T1, RNAP core enzyme (alpha2 beta beta' …); remark: listed apart in the source

B1: rrnAP3 promoter fragment (150 bp) (dsDNA)
DNA 1: ATCGAACGGGTATGCTGTTAGGCGACGGTCACCTATGGATATCTATGGATGACCGAACCTGGTCTTGACTCCATTGCCGGATTTGTATTAGACTGGCAGGGTTGCCCCGAAGCGGGCGGAAACAAGCAAGCGTGTTGTTTGAGAACTCAA
DNA 2: TTGAGTTCTCAAACAACACGCTTGCTTGTTTCCGCCCGCTTCGGGGCAACCCTGCCAGTCTAATACAAATCCGGCAATGGAGTCAAGACCAGGTTCGGTCATCCATAGATATCCATAGGTGACCGTCGCCTAACAGCATACCCGTTCGAT
binding result [1]: binds | binding result [2]: binds | binding result [3]: binds

B2: sinP3 promoter fragment (127 bp) (dsDNA)
DNA 1: TTTAAACAAAAAGTCTGCTCATCCTGGTCCGGCAGCCAGAAGTCATACCGTAAATCCTTTCTGAATGTGCTATAATATCACAAGGAAGGTGATGACATTGATTGGCCAGCGTATTAAACAATACCGT
DNA 2: ACGGTATTGTTTAATACGCTGGCCAATCAATGTCATCACCTTCCTTGTGATATTATAGCACATTCAGAAAGGATTTACGGTATGACTTCTGGCTGCCGGACCAGGATGAGCAGACTTTTTGTTTAAA
binding result [4]: binds
